In article PMC9482650, “Quantitative fragmentomics allow affinity mapping of interactomes” (Nature Communications, 2022):

T1: APBA1_1, Q02410
T1 sequence (Q02410 651-752, limits assumed, looked up): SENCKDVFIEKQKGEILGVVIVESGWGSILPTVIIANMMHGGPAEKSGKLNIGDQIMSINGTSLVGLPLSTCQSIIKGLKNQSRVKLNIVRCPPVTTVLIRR

T2: APBA1_2, Q02410
T2 sequence (Q02410 742-832, limits assumed, looked up): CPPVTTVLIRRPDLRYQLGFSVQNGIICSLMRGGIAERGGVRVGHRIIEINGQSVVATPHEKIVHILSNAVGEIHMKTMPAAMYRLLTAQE

T3: APBA3_1, O96018
T3 sequence (O96018 389-490, limits assumed, looked up): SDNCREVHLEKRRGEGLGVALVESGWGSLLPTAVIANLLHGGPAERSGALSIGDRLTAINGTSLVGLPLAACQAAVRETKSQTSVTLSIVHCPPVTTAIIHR

T4: DLG3_1, Q92796
T4 sequence (Q92796 125-227, limits assumed, looked up): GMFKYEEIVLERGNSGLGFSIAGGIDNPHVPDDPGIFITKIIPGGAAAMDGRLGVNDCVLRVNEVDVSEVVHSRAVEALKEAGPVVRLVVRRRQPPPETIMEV

T5: DLG3_2, Q92796
T5 sequence (Q92796 221-321, limits assumed, looked up): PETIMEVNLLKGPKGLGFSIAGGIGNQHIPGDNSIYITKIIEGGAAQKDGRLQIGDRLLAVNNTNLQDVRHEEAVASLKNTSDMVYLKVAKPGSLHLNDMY

T6: GRIP1_2, Q9Y3R0
T6 sequence (Q9Y3R0 145-248, limits assumed, looked up): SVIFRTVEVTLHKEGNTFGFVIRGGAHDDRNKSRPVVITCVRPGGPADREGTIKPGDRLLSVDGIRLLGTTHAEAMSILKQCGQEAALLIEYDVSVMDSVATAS

T7: LNX2_2, Q8N448
T7 sequence (Q8N448 334-432, limits assumed, looked up): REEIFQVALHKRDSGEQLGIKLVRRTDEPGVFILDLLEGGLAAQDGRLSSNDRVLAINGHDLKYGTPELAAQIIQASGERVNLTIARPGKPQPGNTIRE

T8: MPDZ_5, O75970
T8 sequence (O75970 695-796, limits assumed, looked up): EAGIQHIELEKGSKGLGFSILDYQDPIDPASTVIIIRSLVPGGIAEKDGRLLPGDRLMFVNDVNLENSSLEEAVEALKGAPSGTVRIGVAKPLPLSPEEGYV

T9: MPP2, Q14168
T9 sequence (Q14168 180-250, limits assumed, looked up): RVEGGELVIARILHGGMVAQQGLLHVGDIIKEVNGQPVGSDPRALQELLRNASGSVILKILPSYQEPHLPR

T10: RADIL, Q96JH8
T10 sequence (Q96JH8 971-1071, limits assumed, looked up): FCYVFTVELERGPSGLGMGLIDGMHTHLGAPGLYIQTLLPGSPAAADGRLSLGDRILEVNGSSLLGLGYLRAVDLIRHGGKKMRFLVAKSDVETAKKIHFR

T11: SNTB1, Q13884
T11 sequence (Q13884 107-205, limits assumed, looked up): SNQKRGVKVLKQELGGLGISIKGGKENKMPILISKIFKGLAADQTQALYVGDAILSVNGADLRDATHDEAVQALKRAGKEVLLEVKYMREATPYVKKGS

T12: TX1BP3, O14907
T12 sequence (O14907 10-122, limits assumed, looked up): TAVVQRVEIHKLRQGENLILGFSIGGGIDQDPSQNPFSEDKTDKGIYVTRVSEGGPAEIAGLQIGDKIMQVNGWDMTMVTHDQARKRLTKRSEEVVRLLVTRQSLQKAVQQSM


Legend:
Assay in all cases: holdup assay
Parameters in all cases: key: below the threshold = too weak to quantify, mostly under pKd 3.1 to 4
Conditions in all cases: plain residues with an end cap or a label only (N-terminal biotin on a linker: ado-ado)
[1] = target: T1, APBA1_1, Q02410
[2] = target: T2, APBA1_2, Q02410
[3] = target: T3, APBA3_1, O96018
[4] = target: ARHGEF12, Q9NZN5-2
[5] = target: CASK, O14936
[6] = target: DLG1_2, Q12959
[7] = target: DLG2_2, Q15700
[8] = target: T4, DLG3_1, Q92796
[9] = target: T5, DLG3_2, Q92796
[10] = target: DLG4_3, P78352
[11] = target: T6, GRIP1_2, Q9Y3R0
[12] = target: Inadl_10, Q8NI35
[13] = target: LAP2, Q96RT1
[14] = target: LNX1_2, Q8TBB1
[15] = target: T7, LNX2_2, Q8N448
[16] = target: MAGI2_4, Q86UL8
[17] = target: MAGI3_2, Q5TCQ9
[18] = target: T8, MPDZ_5, O75970
[19] = target: T9, MPP2, Q14168
[20] = target: PDZRN4_1, Q6ZMN7
[21] = target: PICK1, Q9NRD5
[22] = target: T10, RADIL, Q96JH8
[23] = target: T11, SNTB1, Q13884
[24] = target: TJP1_2, Q07157
[25] = target: TJP2_1, Q9UDY2
[26] = target: T12, TX1BP3, O14907

Chain of PDZRN4_1, Q6ZMN7 (Q6ZMN7 213-318): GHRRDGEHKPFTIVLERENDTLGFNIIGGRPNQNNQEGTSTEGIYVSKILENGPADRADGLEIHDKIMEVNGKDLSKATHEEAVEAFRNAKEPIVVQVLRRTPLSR
Chain of DLG1_2, Q12959 (Q12959 314-412): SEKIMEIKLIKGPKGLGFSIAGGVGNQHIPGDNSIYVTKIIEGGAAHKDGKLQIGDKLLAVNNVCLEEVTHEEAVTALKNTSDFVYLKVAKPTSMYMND
Chain of LAP2, Q96RT1 (Q96RT1 other isoform, or with tags, fused parts or gaps): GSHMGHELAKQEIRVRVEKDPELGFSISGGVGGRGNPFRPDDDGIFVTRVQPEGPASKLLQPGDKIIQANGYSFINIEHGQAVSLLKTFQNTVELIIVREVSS
Chain of ARHGEF12, Q9NZN5-2 (Q9NZN5 other isoform, or with tags, fused parts or gaps): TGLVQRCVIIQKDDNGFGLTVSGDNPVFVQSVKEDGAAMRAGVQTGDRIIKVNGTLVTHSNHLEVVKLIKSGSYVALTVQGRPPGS
Chain of TJP2_1, Q9UDY2 (Q9UDY2 24-128): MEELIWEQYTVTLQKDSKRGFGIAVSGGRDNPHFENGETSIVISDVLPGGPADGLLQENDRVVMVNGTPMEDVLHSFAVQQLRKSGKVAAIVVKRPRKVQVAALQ
Chain of MAGI3_2, Q5TCQ9 (Q5TCQ9 398-503): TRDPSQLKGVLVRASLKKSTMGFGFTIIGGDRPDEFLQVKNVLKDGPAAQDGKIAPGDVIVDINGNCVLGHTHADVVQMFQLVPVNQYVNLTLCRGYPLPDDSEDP
Chain of DLG2_2, Q15700 (Q15700 189-283): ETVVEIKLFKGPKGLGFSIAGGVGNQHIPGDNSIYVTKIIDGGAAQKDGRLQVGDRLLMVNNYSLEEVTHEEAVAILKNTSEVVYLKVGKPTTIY
Chain of TJP1_2, Q07157 (Q07157 181-274): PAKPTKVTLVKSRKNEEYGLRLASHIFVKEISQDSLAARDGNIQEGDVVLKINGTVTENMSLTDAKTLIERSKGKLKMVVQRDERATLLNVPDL
Chain of PICK1, Q9NRD5 (Q9NRD5 17-115): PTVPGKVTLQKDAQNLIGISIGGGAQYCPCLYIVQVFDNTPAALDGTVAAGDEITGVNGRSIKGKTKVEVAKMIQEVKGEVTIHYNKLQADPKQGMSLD
Chain of DLG4_3, P78352 (P78352 306-403): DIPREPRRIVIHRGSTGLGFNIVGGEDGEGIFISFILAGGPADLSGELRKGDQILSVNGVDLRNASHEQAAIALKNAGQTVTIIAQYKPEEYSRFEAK
Chain of MAGI2_4, Q86UL8 (Q86UL8 772-865): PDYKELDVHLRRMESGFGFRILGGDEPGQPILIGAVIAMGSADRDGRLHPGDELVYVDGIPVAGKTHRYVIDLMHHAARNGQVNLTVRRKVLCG
Chain of CASK, O14936 (O14936 487-570): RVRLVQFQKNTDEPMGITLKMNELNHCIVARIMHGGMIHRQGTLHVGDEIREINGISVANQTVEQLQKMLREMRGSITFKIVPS
Chain of LNX1_2, Q8TBB1 (Q8TBB1 371-470): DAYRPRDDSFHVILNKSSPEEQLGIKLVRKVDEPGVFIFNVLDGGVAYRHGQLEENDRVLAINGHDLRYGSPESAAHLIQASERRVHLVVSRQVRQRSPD
Chain of Inadl_10, Q8NI35 (Q8NI35 1673-1763): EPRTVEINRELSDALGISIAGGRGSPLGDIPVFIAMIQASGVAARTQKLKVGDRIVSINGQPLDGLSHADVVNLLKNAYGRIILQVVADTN

Row | Binder | pKd [1] | pKd [2] | pKd [3] | pKd [4] | pKd [5] | pKd [6] | pKd [7] | pKd [8] | pKd [9] | pKd [10] | pKd [11] | pKd [12] | pKd [13] | pKd [14] | pKd [15] | pKd [16] | pKd [17] | pKd [18] | pKd [19] | pKd [20] | further results
1 | DSEEELPTRL [GRK6, P43250] | below the threshold | 4.16 | below the threshold | 3.57 | below the threshold | below the threshold | below the threshold | below the threshold | 3.66 | below the threshold | below the threshold | below the threshold | below the threshold | below the threshold | below the threshold | 3.47 | below the threshold | below the threshold | below the threshold | below the threshold | pKd [21]: 4.25; pKd [22]: below the threshold; pKd [23]: below the threshold; pKd [24]: below the threshold; pKd [25]: below the threshold; pKd [26]: below the threshold
2 | GTMFLRETSL [GUCY1A2, P33402] | below the threshold | 3.61 | below the threshold | 4.93 | below the threshold | 4.81 | 4.23 | below the threshold | 4.51 | 4.86 | below the threshold | below the threshold | 3.85 | below the threshold | below the threshold | below the threshold | 4.46 | below the threshold | below the threshold | 5.71 | pKd [21]: 4.12; pKd [22]: below the threshold; pKd [23]: 5.39; pKd [24]: below the threshold; pKd [25]: below the threshold; pKd [26]: 5.31
3 | KPDKQEEFYA [SDC3, O75056] | below the threshold | below the threshold | below the threshold | below the threshold | below the threshold | below the threshold | below the threshold | below the threshold | 4.05 | below the threshold | below the threshold | below the threshold | below the threshold | below the threshold | below the threshold | below the threshold | below the threshold | below the threshold | below the threshold | below the threshold | pKd [21]: below the threshold; pKd [22]: below the threshold; pKd [23]: below the threshold; pKd [24]: below the threshold; pKd [25]: below the threshold; pKd [26]: below the threshold

Now from value to binder, other results behind:

Row | pKd [1] | pKd [2] | pKd [3] | pKd [4] | pKd [5] | pKd [6] | pKd [7] | pKd [8] | pKd [9] | pKd [10] | pKd [11] | pKd [12] | pKd [13] | pKd [14] | pKd [15] | pKd [16] | pKd [17] | pKd [18] | pKd [19] | pKd [20] | Binder | further results
4 | below the threshold | below the threshold | below the threshold | below the threshold | below the threshold | below the threshold | below the threshold | below the threshold | below the threshold | below the threshold | below the threshold | below the threshold | below the threshold | below the threshold | below the threshold | below the threshold | below the threshold | below the threshold | below the threshold | below the threshold | FVFESRKEIL [TBPL1, P62380] | pKd [21]: below the threshold; pKd [22]: below the threshold; pKd [23]: below the threshold; pKd [24]: below the threshold; pKd [25]: below the threshold; pKd [26]: below the threshold
5 | below the threshold | below the threshold | below the threshold | 3.81 | below the threshold | 3.92 | below the threshold | below the threshold | 4.3 | below the threshold | below the threshold | below the threshold | below the threshold | below the threshold | 3.52 | below the threshold | below the threshold | below the threshold | below the threshold | 4.33 | PLATCDETSI [SEMA4F, O95754] | pKd [21]: below the threshold; pKd [22]: below the threshold; pKd [23]: 4.51; pKd [24]: below the threshold; pKd [25]: below the threshold; pKd [26]: below the threshold
